In patent JP2008532476A (dated 2008):

Biological target: T1, recombinant mouse Tie1-Fc (mouse, UniProt Q06806 23-755)
T1 construct: extracellular domain; also called mouse Tie1-Fc antigen; mouse Tie1-Fc fusion protein; not shown: Fc
T1 sequence (looked up): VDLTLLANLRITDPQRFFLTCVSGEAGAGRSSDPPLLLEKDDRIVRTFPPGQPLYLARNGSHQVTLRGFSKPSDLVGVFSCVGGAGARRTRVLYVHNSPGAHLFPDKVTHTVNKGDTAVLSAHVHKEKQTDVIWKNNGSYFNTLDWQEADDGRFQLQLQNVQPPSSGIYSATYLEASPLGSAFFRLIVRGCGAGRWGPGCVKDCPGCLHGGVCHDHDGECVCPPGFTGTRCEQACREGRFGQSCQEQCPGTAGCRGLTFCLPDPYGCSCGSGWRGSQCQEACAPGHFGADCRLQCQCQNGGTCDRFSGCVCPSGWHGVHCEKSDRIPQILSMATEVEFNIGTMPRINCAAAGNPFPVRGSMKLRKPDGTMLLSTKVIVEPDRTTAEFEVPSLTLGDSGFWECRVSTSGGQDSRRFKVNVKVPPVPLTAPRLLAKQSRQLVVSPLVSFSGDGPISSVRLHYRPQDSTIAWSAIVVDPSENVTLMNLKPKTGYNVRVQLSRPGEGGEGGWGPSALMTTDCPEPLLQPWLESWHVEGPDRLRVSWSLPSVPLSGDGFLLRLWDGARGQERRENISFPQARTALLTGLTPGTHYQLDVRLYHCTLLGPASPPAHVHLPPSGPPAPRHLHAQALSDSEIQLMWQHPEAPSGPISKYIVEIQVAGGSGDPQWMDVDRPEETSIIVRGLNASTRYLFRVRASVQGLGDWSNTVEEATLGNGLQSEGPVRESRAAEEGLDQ
Test: SPR (BIAcore 3000), Fab as analyte over mouse Tie1-Fc immobilised on a sensor chip

B1: E3b Fab (germline E3 (DX-2220) Fab) (Fab, V domains shown)
VH: EVQLLESGGGLVQPGGSLRLSCAASGFTFSMYGMVWVRQAPGKGLEWVSVISPSGGNTGYADSVKGRFTISRDNSKNTLYLQMNSLRAEDTAVYYCARAPRGYSYGYYYWGQGTLVTVSS
VL: DIQMTQSPSSLSASVGDRVTITCRASQGIGHYLAWYQQKPGKVPKLLIYTASTLQSGVPSRFSGSGSGTDFTLTISSLQPEDVATYYCQQFNSYPHTFGQGTRLEIK
Which Kd does the source give for B1 here?
Its Kd is ~3 nM.
